Patent publication US20130123173A1, “CREATION OF OXIDATION-RESISTANT HDL MIMETIC PEPTIDES” (The Regents of the University of California, priority 2010, published 2013)
“Also recorded” adds a separate entry of the source.

Experiments:
J774 macrophages [1] = test: Cholesterol efflux from cAMP-treated J774 macrophages (ABCA1 cholesterol efflux); assay type: cell-based; settings: for change of cholesterol efflux activity upon exposure to acrolein: excess molar acrolein; for cholesterol efflux activity: no oxidant exposure, lipid-free peptides, cAMP-treated J774 macrophages
Description: FIG. 1 provides data showing the sensitivity of ABCA1 efflux peptide ATI-5261 and an analog to acrolein. ATI-5261 was engineered with arginine (R) in place of lysine (K) at positions 5 and 25 (K5, 25/R), creating an oxidation-resistant analog. […] Panel B. Dependence of cholesterol efflux on ABCA1 expression, as judged with and without cAMP (no oxidant exposure). Peptides were used in lipid-free form at […]. Panel C. Peptides were incubated (37° C., 24 h) with acrolein at a molar ratio of 50:1 (acrolein:peptide) in the presence of DTPA; excess aminoguanidine was added to terminate reactions and peptides dialyzed to PBS. Cholesterol efflux (8 h) was assessed using cAMP-treated J774 cells and peptides at 2 mg/ml. Values are % of control efflux with peptides not treated with acrolein.
Panel D. Impact of varying molar ratio of acrolein relative to ATI-5261 on cholesterol efflux from cAMP treated J774 cells.
Suitable cholesterol efflux assays are described in, e.g., Bielicki, J. K and Oda, M. N., Biochemistry, 41:2089-2096 (2002); Jia et al., Biochem. Biophys. Res. Common., 297:206-213 (2002). In some embodiments, a polypeptide known to mediate cholesterol efflux (e.g., helix 9/10 of Apo A-I) is used to screen for additional mediators of cholesterol efflux in a cell based assay. For example, cell lines in which cholesterol efflux can be enhanced using a cAMP analog that up-regulates ABCA1 protein expression (e.g., J774 macrophages) can conveniently be used to assess the ability of a polypeptide of the present invention to mediate cholesterol efflux. The cells are incubated with labeled cholesterol (e.g., [^3H]cholesterol) under conditions appropriate for cholesterol uptake by the cells. Thus, cAMP or cAMP analogs (e.g., CPT-cAMP) are incubated with the cells for a suitable time before the initiation of cellular cholesterol efflux, i.e., prior to contacting the cells with a test polypeptide. Measurement of labeled cholesterol appearing in the medium is used to determine the cholesterol efflux mediating activity of the test polypeptide.

[2] = α-helical content (secondary structure) of peptides with and without acrolein; assay type: physicochemical; settings: for α-helical content: 10 mM phosphate buffer (pH=7.4); for α-helical content, comparison in words: FIG. 2 legend, vs ATI-5261 control or vs untreated peptide
Description: FIG. 2 provides data showing the % α-helical content of ATI-5261 and the K5, 25→R analog peptide. Peptides in 10 mM phosphate buffer (pH=7.4) were analyzed. […] Biosyn. denotes source (commercial vendor) used to synthesize peptides (same for all peptides).

[3] = tested on: macrophage reverse cholesterol transport; test: Macrophage reverse cholesterol transport upon exposure to oxidative stress; assay type: in vivo; settings: vs ATI-5261
[4] = SDS-PAGE analysis of peptides following exposure to acrolein (cross-linking); assay type: physicochemical; settings: 20-fold molar excess of acrolein, 37° C., 20 h
Description: Peptides ATI-5261 and K5,25 were exposed to 20-fold molar excess of acrolein or buffer alone and incubated 37° C. for 20 h. Lane 1—MW standards (kDa); lane 2, K5,25→R peptide exposed to acrolein; Lane3, ATI-5261 exposed to acrolein; lane 4, K5, 25→R peptide buffer control; Lane 5, ATI-5261 buffer control. Peptide loads were 3 μg/well.

J774 macrophages [5] = settings: background statement; cited from earlier work
atherosclerosis = settings: mice fed high-fat western-diet; cited from earlier work
ABCA1 = ABCA1 (UniProt P41233 1-2261, limits assumed); test: cell-based or functional assay
Chain of ABCA1 (P41233 whole entry): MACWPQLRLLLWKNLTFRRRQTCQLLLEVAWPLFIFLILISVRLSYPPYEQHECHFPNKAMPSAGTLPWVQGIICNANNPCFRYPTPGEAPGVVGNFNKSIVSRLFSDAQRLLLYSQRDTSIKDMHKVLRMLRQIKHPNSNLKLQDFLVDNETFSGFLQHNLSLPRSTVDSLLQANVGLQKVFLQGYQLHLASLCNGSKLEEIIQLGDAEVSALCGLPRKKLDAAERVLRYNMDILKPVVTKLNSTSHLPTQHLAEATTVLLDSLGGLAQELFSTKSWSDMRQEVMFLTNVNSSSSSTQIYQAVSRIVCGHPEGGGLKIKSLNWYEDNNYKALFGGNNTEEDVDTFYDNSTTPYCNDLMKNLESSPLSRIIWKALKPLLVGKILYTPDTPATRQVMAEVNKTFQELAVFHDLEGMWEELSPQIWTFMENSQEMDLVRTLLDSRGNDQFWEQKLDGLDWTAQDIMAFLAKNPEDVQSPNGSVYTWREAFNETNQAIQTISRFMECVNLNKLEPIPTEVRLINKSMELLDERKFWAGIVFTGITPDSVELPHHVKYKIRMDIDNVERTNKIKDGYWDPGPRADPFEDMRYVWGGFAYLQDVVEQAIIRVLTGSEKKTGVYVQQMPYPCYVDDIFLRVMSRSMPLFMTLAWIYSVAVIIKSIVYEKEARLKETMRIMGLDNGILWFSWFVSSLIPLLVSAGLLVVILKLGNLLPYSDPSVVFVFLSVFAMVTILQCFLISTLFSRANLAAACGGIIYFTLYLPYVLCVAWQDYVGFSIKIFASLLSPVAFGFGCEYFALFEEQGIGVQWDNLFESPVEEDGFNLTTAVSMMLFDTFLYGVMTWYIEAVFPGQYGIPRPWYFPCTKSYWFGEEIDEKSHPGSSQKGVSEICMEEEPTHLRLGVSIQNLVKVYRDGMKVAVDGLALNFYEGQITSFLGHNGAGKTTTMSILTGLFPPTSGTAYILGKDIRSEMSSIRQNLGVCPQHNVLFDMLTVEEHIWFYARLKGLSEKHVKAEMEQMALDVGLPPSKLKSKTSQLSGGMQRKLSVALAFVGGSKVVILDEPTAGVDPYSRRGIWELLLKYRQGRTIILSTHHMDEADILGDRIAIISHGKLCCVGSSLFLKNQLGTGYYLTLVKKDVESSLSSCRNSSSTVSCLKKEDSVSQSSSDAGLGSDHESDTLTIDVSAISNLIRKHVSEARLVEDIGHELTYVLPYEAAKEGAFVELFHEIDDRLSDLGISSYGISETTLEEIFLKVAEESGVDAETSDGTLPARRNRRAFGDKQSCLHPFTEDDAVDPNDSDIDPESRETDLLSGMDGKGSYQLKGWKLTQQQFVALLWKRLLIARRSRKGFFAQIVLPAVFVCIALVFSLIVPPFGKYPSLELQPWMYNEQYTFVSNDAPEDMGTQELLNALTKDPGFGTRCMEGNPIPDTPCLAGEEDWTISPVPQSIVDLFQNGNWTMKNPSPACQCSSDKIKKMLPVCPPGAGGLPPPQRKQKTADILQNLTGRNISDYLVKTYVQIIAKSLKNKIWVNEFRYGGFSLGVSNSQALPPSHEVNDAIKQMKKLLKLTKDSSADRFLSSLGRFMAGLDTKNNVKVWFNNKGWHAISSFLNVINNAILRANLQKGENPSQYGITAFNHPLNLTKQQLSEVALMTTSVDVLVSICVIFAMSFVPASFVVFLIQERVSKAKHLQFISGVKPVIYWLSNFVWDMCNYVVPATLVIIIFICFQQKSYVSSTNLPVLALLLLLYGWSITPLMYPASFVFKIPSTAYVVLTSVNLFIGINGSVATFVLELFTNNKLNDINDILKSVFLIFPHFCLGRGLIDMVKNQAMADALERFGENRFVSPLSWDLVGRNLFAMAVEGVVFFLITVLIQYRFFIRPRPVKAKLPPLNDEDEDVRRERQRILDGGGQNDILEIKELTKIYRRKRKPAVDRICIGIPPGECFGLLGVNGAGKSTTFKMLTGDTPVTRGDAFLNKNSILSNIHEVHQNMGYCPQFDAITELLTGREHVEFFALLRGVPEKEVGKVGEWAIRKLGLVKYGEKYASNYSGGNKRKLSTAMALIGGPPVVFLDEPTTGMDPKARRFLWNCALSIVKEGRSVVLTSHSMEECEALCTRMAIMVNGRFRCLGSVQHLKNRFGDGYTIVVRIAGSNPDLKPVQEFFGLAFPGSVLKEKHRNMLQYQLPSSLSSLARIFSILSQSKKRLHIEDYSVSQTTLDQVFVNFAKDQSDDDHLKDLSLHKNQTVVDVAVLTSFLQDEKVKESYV

| Molecule | augmentation of cholesterol efflux activity by acrolein (J774 macrophages [1]; acrolein-treated peptide vs untreated peptide) | change of cholesterol efflux activity upon exposure to acrolein (J774 macrophages [1]) | cholesterol efflux activity (J774 macrophages [1]) | cholesterol efflux activity (J774 macrophages [1]; listed as K→R) | α-helical content ([2]; +Acrolein) | α-helical content, comparison in words [2] | α-helical content ([2]; no acrolein) | macrophage reverse cholesterol transport [3] | cross-linking of the peptide after acrolein treatment [4] | molar potency for ABCA1 cholesterol efflux relative to native apoA-I (J774 macrophages [5]) | effect on atherosclerosis (atherosclerosis) | reduction of cholesterol efflux activity after acrolein exposure, molar acrolein:peptide ratio 5:1 (ABCA1) | reduction of cholesterol efflux activity after acrolein exposure, molar acrolein:peptide ratio 10:1 (ABCA1) | reduction of cholesterol efflux activity after acrolein exposure, molar acrolein:peptide ratio 20:1 (ABCA1) |
| --- | --- | --- | --- | --- | --- | --- | --- | --- | --- | --- | --- | --- | --- | --- |
| EVRSRLEEWFAAFREFAEEFLARLRS [K5,25→R, ATI-5261 with arginine in place of lysine at positions 5 and 25] | ~70% | increased upon exposure to acrolein | stimulated cholesterol efflux (4 h) efficiently | no effect on cholesterol efflux activity | 72.6% | lower α-helical content compared to the ATI-5261 control; also recorded: increase in α-helical content | 56.8% | greatly improved macrophage reverse cholesterol transport | – | – | – | – | – | – |
| EVRSKLEEWFAAFREFAEEFLARLKS (synthetic amphipathic alpha helix HDL mimetic peptide ATI-5261 susceptible to oxidation that stimulates ATP binding cassette protein ABCA1-dependent cholesterol efflux based on apolipoprotein AI (ApoA-I) alpha-helical motif) [26-mer prototype/parent HDL mimetic ABCA1 efflux peptide, oxidation susceptible, reference compound] | – | marked decrease in cholesterol efflux activity | stimulated cholesterol efflux (4 h) efficiently | – | 48.3% | significantly lower helical content | 72.7% | – | substantial cross-linking | nearly the same molar potency as native apoA-I | reduce substantial atherosclerosis | – | – | – |
| EVRSKLEEWFAAFREFAEEFLARLKS [ATI-5261] | – | – | – | – | – | – | – | – | – | – | – | 50% | 70% | 93% |
